Measurements published in US20260015399A1 (Boehringer Ingelheim, published 2026).
*1 amine or outer side, *2 acyl side, *3 side chain or, on linkers, in order; H or OH if unused. Side-chain parts run from the residue outwards. The star is where a group is joined. C18 diacid = O=C(O)CCCCCCCCCCCCCCCCC(=O)*; γGlu = O=C(O)[C@H](CCC(=O)[*:2])N[*:1]; Isovaleryl = CC(C)CC(=O)*; Ahx = NCCCCCC(=O)O

B1: Compound 173 (peptide)
peptide: Isovaleryl-APEK([Ahx-γGlu-C18 diacid])PEEDATPEELQRYYVSLRHYYNWLTRQRY-NH2
SMILES: CC(C)CC(=O)N[C@@H](C)C(=O)N1CCC[C@H]1C(=O)N[C@@H](CCC(=O)O)C(=O)N[C@@H](CCCCNC(=O)CCCCCNC(=O)CC[C@H](NC(=O)CCCCCCCCCCCCCCCCC(=O)O)C(=O)O)C(=O)N1CCC[C@H]1C(=O)N[C@@H](CCC(=O)O)C(=O)N[C@@H](CCC(=O)O)C(=O)N[C@@H](CC(=O)O)C(=O)N[C@@H](C)C(=O)N[C@H](C(=O)N1CCC[C@H]1C(=O)N[C@@H](CCC(=O)O)C(=O)N[C@@H](CCC(=O)O)C(=O)N[C@@H](CC(C)C)C(=O)N[C@@H](CCC(N)=O)C(=O)N[C@@H](CCCNC(=N)N)C(=O)N[C@@H](Cc1ccc(O)cc1)C(=O)N[C@@H](Cc1ccc(O)cc1)C(=O)N[C@H](C(=O)N[C@@H](CO)C(=O)N[C@@H](CC(C)C)C(=O)N[C@@H](CCCNC(=N)N)C(=O)N[C@@H](Cc1c[nH]cn1)C(=O)N[C@@H](Cc1ccc(O)cc1)C(=O)N[C@@H](Cc1ccc(O)cc1)C(=O)N[C@@H](CC(N)=O)C(=O)N[C@@H](Cc1c[nH]c2ccccc12)C(=O)N[C@@H](CC(C)C)C(=O)N[C@H](C(=O)N[C@@H](CCCNC(=N)N)C(=O)N[C@@H](CCC(N)=O)C(=O)N[C@@H](CCCNC(=N)N)C(=O)N[C@@H](Cc1ccc(O)cc1)C(N)=O)[C@@H](C)O)C(C)C)[C@@H](C)O
B2: Compound 5 (peptide)
peptide: Isovaleryl-APAK([Ahx-γGlu-C18 diacid])PEEDASPEELQRQYVSLRHYYNWLTRQRY-NH2
SMILES: CC(C)CC(=O)N[C@@H](C)C(=O)N1CCC[C@H]1C(=O)N[C@@H](C)C(=O)N[C@@H](CCCCNC(=O)CCCCCNC(=O)CC[C@H](NC(=O)CCCCCCCCCCCCCCCCC(=O)O)C(=O)O)C(=O)N1CCC[C@H]1C(=O)N[C@@H](CCC(=O)O)C(=O)N[C@@H](CCC(=O)O)C(=O)N[C@@H](CC(=O)O)C(=O)N[C@@H](C)C(=O)N[C@@H](CO)C(=O)N1CCC[C@H]1C(=O)N[C@@H](CCC(=O)O)C(=O)N[C@@H](CCC(=O)O)C(=O)N[C@@H](CC(C)C)C(=O)N[C@@H](CCC(N)=O)C(=O)N[C@@H](CCCNC(=N)N)C(=O)N[C@@H](CCC(N)=O)C(=O)N[C@@H](Cc1ccc(O)cc1)C(=O)N[C@H](C(=O)N[C@@H](CO)C(=O)N[C@@H](CC(C)C)C(=O)N[C@@H](CCCNC(=N)N)C(=O)N[C@@H](Cc1c[nH]cn1)C(=O)N[C@@H](Cc1ccc(O)cc1)C(=O)N[C@@H](Cc1ccc(O)cc1)C(=O)N[C@@H](CC(N)=O)C(=O)N[C@@H](Cc1c[nH]c2ccccc12)C(=O)N[C@@H](CC(C)C)C(=O)N[C@H](C(=O)N[C@@H](CCCNC(=N)N)C(=O)N[C@@H](CCC(N)=O)C(=O)N[C@@H](CCCNC(=N)N)C(=O)N[C@@H](Cc1ccc(O)cc1)C(N)=O)[C@@H](C)O)C(C)C
B3: Compound 3 (peptide)
peptide: Isovaleryl-APAK([Ahx-γGlu-C18 diacid])PEADAEPEELQRYYVALRHYYNWLTRQRY-NH2
SMILES: CC(C)CC(=O)N[C@@H](C)C(=O)N1CCC[C@H]1C(=O)N[C@@H](C)C(=O)N[C@@H](CCCCNC(=O)CCCCCNC(=O)CC[C@H](NC(=O)CCCCCCCCCCCCCCCCC(=O)O)C(=O)O)C(=O)N1CCC[C@H]1C(=O)N[C@@H](CCC(=O)O)C(=O)N[C@@H](C)C(=O)N[C@@H](CC(=O)O)C(=O)N[C@@H](C)C(=O)N[C@@H](CCC(=O)O)C(=O)N1CCC[C@H]1C(=O)N[C@@H](CCC(=O)O)C(=O)N[C@@H](CCC(=O)O)C(=O)N[C@@H](CC(C)C)C(=O)N[C@@H](CCC(N)=O)C(=O)N[C@@H](CCCNC(=N)N)C(=O)N[C@@H](Cc1ccc(O)cc1)C(=O)N[C@@H](Cc1ccc(O)cc1)C(=O)N[C@H](C(=O)N[C@@H](C)C(=O)N[C@@H](CC(C)C)C(=O)N[C@@H](CCCNC(=N)N)C(=O)N[C@@H](Cc1c[nH]cn1)C(=O)N[C@@H](Cc1ccc(O)cc1)C(=O)N[C@@H](Cc1ccc(O)cc1)C(=O)N[C@@H](CC(N)=O)C(=O)N[C@@H](Cc1c[nH]c2ccccc12)C(=O)N[C@@H](CC(C)C)C(=O)N[C@H](C(=O)N[C@@H](CCCNC(=N)N)C(=O)N[C@@H](CCC(N)=O)C(=O)N[C@@H](CCCNC(=N)N)C(=O)N[C@@H](Cc1ccc(O)cc1)C(N)=O)[C@@H](C)O)C(C)C
B4: Compound 8 (peptide)
peptide: Isovaleryl-APEK([Ahx-γGlu-C18 diacid])PEEDETPEELQRYYVSLRHYYNWLTRQRY-NH2
SMILES: CC(C)CC(=O)N[C@@H](C)C(=O)N1CCC[C@H]1C(=O)N[C@@H](CCC(=O)O)C(=O)N[C@@H](CCCCNC(=O)CCCCCNC(=O)CC[C@H](NC(=O)CCCCCCCCCCCCCCCCC(=O)O)C(=O)O)C(=O)N1CCC[C@H]1C(=O)N[C@@H](CCC(=O)O)C(=O)N[C@@H](CCC(=O)O)C(=O)N[C@@H](CC(=O)O)C(=O)N[C@@H](CCC(=O)O)C(=O)N[C@H](C(=O)N1CCC[C@H]1C(=O)N[C@@H](CCC(=O)O)C(=O)N[C@@H](CCC(=O)O)C(=O)N[C@@H](CC(C)C)C(=O)N[C@@H](CCC(N)=O)C(=O)N[C@@H](CCCNC(=N)N)C(=O)N[C@@H](Cc1ccc(O)cc1)C(=O)N[C@@H](Cc1ccc(O)cc1)C(=O)N[C@H](C(=O)N[C@@H](CO)C(=O)N[C@@H](CC(C)C)C(=O)N[C@@H](CCCNC(=N)N)C(=O)N[C@@H](Cc1c[nH]cn1)C(=O)N[C@@H](Cc1ccc(O)cc1)C(=O)N[C@@H](Cc1ccc(O)cc1)C(=O)N[C@@H](CC(N)=O)C(=O)N[C@@H](Cc1c[nH]c2ccccc12)C(=O)N[C@@H](CC(C)C)C(=O)N[C@H](C(=O)N[C@@H](CCCNC(=N)N)C(=O)N[C@@H](CCC(N)=O)C(=O)N[C@@H](CCCNC(=N)N)C(=O)N[C@@H](Cc1ccc(O)cc1)C(N)=O)[C@@H](C)O)C(C)C)[C@@H](C)O
B5: Compound 4 (peptide)
peptide: Isovaleryl-APEK([Ahx-γGlu-C18 diacid])PEEAAEPEELQRYYVSLRHYYNWLTRQRY-NH2
SMILES: CC(C)CC(=O)N[C@@H](C)C(=O)N1CCC[C@H]1C(=O)N[C@@H](CCC(=O)O)C(=O)N[C@@H](CCCCNC(=O)CCCCCNC(=O)CC[C@H](NC(=O)CCCCCCCCCCCCCCCCC(=O)O)C(=O)O)C(=O)N1CCC[C@H]1C(=O)N[C@@H](CCC(=O)O)C(=O)N[C@@H](CCC(=O)O)C(=O)N[C@@H](C)C(=O)N[C@@H](C)C(=O)N[C@@H](CCC(=O)O)C(=O)N1CCC[C@H]1C(=O)N[C@@H](CCC(=O)O)C(=O)N[C@@H](CCC(=O)O)C(=O)N[C@@H](CC(C)C)C(=O)N[C@@H](CCC(N)=O)C(=O)N[C@@H](CCCNC(=N)N)C(=O)N[C@@H](Cc1ccc(O)cc1)C(=O)N[C@@H](Cc1ccc(O)cc1)C(=O)N[C@H](C(=O)N[C@@H](CO)C(=O)N[C@@H](CC(C)C)C(=O)N[C@@H](CCCNC(=N)N)C(=O)N[C@@H](Cc1c[nH]cn1)C(=O)N[C@@H](Cc1ccc(O)cc1)C(=O)N[C@@H](Cc1ccc(O)cc1)C(=O)N[C@@H](CC(N)=O)C(=O)N[C@@H](Cc1c[nH]c2ccccc12)C(=O)N[C@@H](CC(C)C)C(=O)N[C@H](C(=O)N[C@@H](CCCNC(=N)N)C(=O)N[C@@H](CCC(N)=O)C(=O)N[C@@H](CCCNC(=N)N)C(=O)N[C@@H](Cc1ccc(O)cc1)C(N)=O)[C@@H](C)O)C(C)C
B6: Compound 1 (peptide)
peptide: Isovaleryl-APEK([Ahx-γGlu-C18 diacid])PEADAEPEELQRYYIALRHYYNWLTRQRY-NH2
SMILES: CC[C@H](C)[C@H](NC(=O)[C@H](Cc1ccc(O)cc1)NC(=O)[C@H](Cc1ccc(O)cc1)NC(=O)[C@H](CCCNC(=N)N)NC(=O)[C@H](CCC(N)=O)NC(=O)[C@H](CC(C)C)NC(=O)[C@H](CCC(=O)O)NC(=O)[C@H](CCC(=O)O)NC(=O)[C@@H]1CCCN1C(=O)[C@H](CCC(=O)O)NC(=O)[C@H](C)NC(=O)[C@H](CC(=O)O)NC(=O)[C@H](C)NC(=O)[C@H](CCC(=O)O)NC(=O)[C@@H]1CCCN1C(=O)[C@H](CCCCNC(=O)CCCCCNC(=O)CC[C@H](NC(=O)CCCCCCCCCCCCCCCCC(=O)O)C(=O)O)NC(=O)[C@H](CCC(=O)O)NC(=O)[C@@H]1CCCN1C(=O)[C@H](C)NC(=O)CC(C)C)C(=O)N[C@@H](C)C(=O)N[C@@H](CC(C)C)C(=O)N[C@@H](CCCNC(=N)N)C(=O)N[C@@H](Cc1c[nH]cn1)C(=O)N[C@@H](Cc1ccc(O)cc1)C(=O)N[C@@H](Cc1ccc(O)cc1)C(=O)N[C@@H](CC(N)=O)C(=O)N[C@@H](Cc1c[nH]c2ccccc12)C(=O)N[C@@H](CC(C)C)C(=O)N[C@H](C(=O)N[C@@H](CCCNC(=N)N)C(=O)N[C@@H](CCC(N)=O)C(=O)N[C@@H](CCCNC(=N)N)C(=O)N[C@@H](Cc1ccc(O)cc1)C(N)=O)[C@@H](C)O

Molecular target: T1, human NPY2 receptor (human, UniProt P49146 1-381)
T1 construct: whole, on cells; also called hNPY2-R; hNPY2R
T1 sequence (looked up): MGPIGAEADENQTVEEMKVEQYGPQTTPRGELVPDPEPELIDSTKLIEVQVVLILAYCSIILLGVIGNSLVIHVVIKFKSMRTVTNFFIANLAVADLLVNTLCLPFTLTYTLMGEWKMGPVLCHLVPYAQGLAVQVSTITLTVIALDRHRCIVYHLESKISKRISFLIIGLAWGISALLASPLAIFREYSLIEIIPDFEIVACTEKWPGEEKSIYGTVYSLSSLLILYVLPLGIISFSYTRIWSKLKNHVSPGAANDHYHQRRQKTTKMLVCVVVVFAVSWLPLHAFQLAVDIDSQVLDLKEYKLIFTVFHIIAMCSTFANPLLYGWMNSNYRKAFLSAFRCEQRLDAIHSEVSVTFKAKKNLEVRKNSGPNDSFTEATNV
Assay: RLB: displacement of 125I-PYY(1-36) from hNPY2R membranes
Protocol: The filtration RLB assay was carried out in 96-well plates in a final volume of 100 μl per well. Freeze-dried test peptides were dissolved in 100% dimethyl sulfoxide (DMSO) to stock solutions of 1 mM and serial dilutions were performed in assay buffer (50 mM HEPES, 5 mM MgCl₂, 1 mM CaCl₂), pH 7.4) containing 0.2% ovalbumin. […] Next, 80 μL membranes (HTS066M, ChemiSCREEN™ Human Neuropeptide Y2 Receptor Membrane Preparation, CHEMICON) were added to each well to give a final protein concentration of 0.5 μg/well. The plates were sealed and incubated at room temperature for 2 hours in a plate shaker set at 400 rpm. The incubation was stopped by vacuum filtration onto 0.5% polyethylene amine (PEI) presoaked GF/C filters using a 96-well FilterMate™ harvester (Perkin Elmer) followed by four washes with 300 μl/well ice-cold wash buffer (50 mM HEPES, 500 mM NaCl, pH7.4). Filter plates were then dried for 60 min at room temperature and the bottom of the plates was sealed with backing tape UniFilter-96. Finally, 50 μl/well scintillation counter cocktail (Microscint20, Packard) was added and the radioactivity was counted in the Packard TopCount NXT scintillation counter. IC₅₀ values (the half maximal inhibitory concentration of the agonist) were calculated by nonlinear regression analysis of sigmoidal dose-response curves.

First: B1
Second: B2
The Ki of the first is 3.1-fold lower: 4.07 nM for the first, 12.7 nM for the second. The first binds more tightly here.

Compared with B3, B4 is 68-fold higher in Ki: 1.57 nM for the first, 106 nM for the second. The first binds more tightly here.

First: B5
Second: B6
The Ki of the first is 2.3-fold higher: 4.65 nM for the first, 2.05 nM for the second. The second binds more tightly here.
